Laboratory results reported in publication doi:10.1101/2025.09.22.677823.

Legend:
[1] = target: Human adenovirus 7 fiber (human adenovirus 7); test: cryo-EM structure
[2] = target: Human adenovirus 7 penton base (human adenovirus 7); test: cryo-EM structure

Substance	stoichiometry N [1]	stoichiometry N [2]
Human adenovirus 7 fiber (natural protein)	3	
Human adenovirus 7 penton base (natural protein)		5
